From US20220411472A1 (FRED HUTCHINSON CANCER CENTER, published 2022)
Where two headings read alike, the source gives them in different places.

T1: OX40 receptor on activated human CD8+ T-cells (human, UniProt P43489 29-277)
T1 construct: whole, on cells; also called CD134
T1 sequence (looked up): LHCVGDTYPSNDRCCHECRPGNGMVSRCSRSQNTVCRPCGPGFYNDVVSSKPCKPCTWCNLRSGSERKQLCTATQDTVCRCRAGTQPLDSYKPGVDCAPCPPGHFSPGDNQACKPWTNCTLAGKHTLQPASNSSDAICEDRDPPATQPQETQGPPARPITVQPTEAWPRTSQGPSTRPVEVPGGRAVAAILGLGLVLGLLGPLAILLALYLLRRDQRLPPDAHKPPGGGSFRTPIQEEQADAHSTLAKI


What was measured:
[1] = molecular target: Tir10 phosphotyrosyl peptide, FITC-Ahx-EHI-pY-DEVAAD
[2] = molecular target: Biotinylated Tir-10_v2 peptide, Biotin-Ahx-EHI-pY-DEVAAD
[3] = molecular target: Biotinylated Tir-10_v2 peptide, Biotin-Ahx-EHI-pY-DEVAAD; remark: listed apart in the source
[4] = molecular target: T1, OX40 receptor on activated human CD8+ …; assay: flow cytometry, CD8+ T-cells 4 days after anti-CD3/anti-CD28 bead activation, 2 µg/mL construct, secondary anti-His iFluor647; axis APC: OX40; lower panel
Experimental: T-cell isolation, proliferation and activation assays. […] Cells were incubated for 30 min at 37° C. with cTRP24₆SS-scTrimer^OX40L (2 μg/mL) or cTRP24₆SS-scTrimer^4-1BBL (2 μg/mL) and subsequently stained at 4° C. using THE anti-His Ab (GenScript; #A00186).

binding result [4]	Molecule	EC50 (read off the curve) [1] [nM]	maximum binding response [2] [RU]	maximum binding response [3] [RU]	response [3] [RU]
–	Free SH2 domain of the human Nck2 adapter protein	400	125	10	80
binds	cTRP246SS-scTrimer^OX40L (6-repeat disulfide-stapled cTRP tetramer with a single chain trimer of OX40L on each subunit) (ligand, also called cTRP246SS-scTrimer^OX4OL; cTRP246SS-scFv^OX40L) QVSHRYPRIQSIKVQFTEYKKEKGFILTSQKEDEIMKVQNNSVIINCDGFYLISLKGYFSQEVNISLHYQKDEEPLFQLKKVRSVNSLMVASLTYKDKVYLNVTTDNTSLDDFHVNGGELILIHQNPGEFCVLGGGGSQVSHRYPRIQSIKVQFTEYKKEKGFILTSQKEDEIMKVQNNSVIINCDGFYLISLKGYFSQEVNISLHYQKDEEPLFQLKKVRSVNSLMVASLTYKDKVYLNVTTDNTSLDDFHVNGGELILIHQNPGEFCVLGGGGSQVSHRYPRIQSIKVQFTEYKKEKGFILTSQKEDEIMKVQNNSVIINCDGFYLISLKGYFSQEVNISLHYQKDEEPLFQLKKVRSVNSLMVASLTYKDKVYLNVTTDNTSLDDFHVNGGELILIHQNPGEFCVLGGGGSGGGGSCEAIKAAAELGKAGISSEEILELLRAAHELGLDPEAIKAAAELGKAGISSEEILELLRAAHELGLDPEAIKAAAELGKAGISSEEILELLRAAHELGLDPEAIKAAAELGKAGISSEEILELLRAAHELGLDPEAIKAAAELGKAGISSEEILELLRAAHELGLDPECIKAAAELGKAGISSEEILELLRAAHELGLGGSHHHHHH	–	–	–	–
